PMC8679783 (2021)

Biological target: RDO24_mFab2 (mouse, UniProt P01863 = IgG part)
Test: SPR

B1: recombinant human MET ECD-Fc (Recombinant Human HGFR/c-MET Fc Chimera His-tag Protein) (Fc fusion)
chain: ECKEALAKSEMNVNMKYQLPNFTAETPIQNVILHEHHIFLGATNYIYVLNEEDLQKVAEYKTGPVLEHPDCFPCQDCSSKANLSGGVWKDNINMALVVDTYYDDQLISCGSVNRGTCQRHVFPHNHTADIQSEVHCIFSPQIEEPSQCPDCVVSALGAKVLSSVKDRFINFFVGNTINSSYFPDHPLHSISVRRLKETKDGFMFLTDQSYIDVLPEFRDSYPIKYVHAFESNNFIYFLTVQRETLDAQTFHTRIIRFCSINSGLHSYMEMPLECILTEKRKKRSTKKEVFNILQAAYVSKPGAQLARQIGASLNDDILFGVFAQSKPDSAEPMDRSAMCAFPIKYVNDFFNKIVNKNNVRCLQHFYGPNHEHCFNRTLLRNSSGCEARRDEYRTEFTTALQRVDLFMGQFSEVLLTSISTFIKGDLTIANLGTSEGRFMQVVVSRSGPSTPHVNFLLDSHPVSPEVIVEHTLNQNGYTLVITGKKITKIPLNGLGCRHFQSCSQCLSAPPFVQCGWCHDKCVRSEECLSGTWTQQICLPAIYKVFPNSAPLEGGTRLTICGWDFGFRRNNKFDLKKTRVLLGNESCTLTLSESTMNTLKCTVGPAMNKHFNMSIIISNGHGTTQYSTFSYVDPVITSISPKYGPMAGGTLLTLTGNYLNSGNSRHISIGGKTCTLKSVSNSILECYTPAQTISTEFAVKLKIDLANRETSIFSYREDPIVYEIHPTKSFISGGSTITGVGKNLNSVSVPRMVINVHEAGRNFTVACQHRSNSEIICCTTPSLQQLNLQLPLKTKAFFMLDGILSKYFDLIYVHNPVFKPFEKPVMISMGNENVLEIKGNDIDPEAVKGEVLKVGNKSCENIHLHSEAVLCTVPNDLLKLNSELNIEWKQAISSTVLGKVIVQPDQNFT
koff: 0.000335 s⁻¹
